This is an account of results in paper PMC8517857, “BusR senses bipartite DNA binding motifs by a unique molecular ruler architecture” (Nucleic Acids Research, 2021).

Changes are numbered by the printed parent chain.

Series [1] addresses RCK_C domain of S. agalactiae BusR (Leu135 to end), no His6-tag (Streptococcus agalactiae). The series can be described thus: crystal structure; RCK_C (no His6-tag), 4.5 mg/mL, co-crystallised with 1 mM c-di-AMP, 100 mM sodium-acetate pH 4.6, 3% PEG 4000, 20°C; 1.2 Å.
In series [2] the target is BusR from Streptococcus agalactiae (full length) (Streptococcus agalactiae). The experiment in a line: SAXS; full length BusR in 20 mM HEPES pH 7.5, 200 mM NaCl, 3% glycerol; P12 beamline, PETRA III.
The target is the same in series [3]. The experiment in a line: cryo-EM structure; BusR with c-di-AMP (100 μM) and operator DNA (pAB, 4.5 Å; pAB1, 7.1 Å), 20 mM HEPES pH 6.5, 100 mM NaCl.
For series [4] the target is unchanged. The series can be described thus: SEC-MALS; SEC-coupled right angle light scattering (SEC-RALS), Superdex S200 10/300 increase, 20°C, buffer SEC (30 mM NaPi pH 6.5, 200 mM NaCl, 3% glycerol); BusR alone (apo) and with c-di-AMP. Background: Size exclusion chromatography separates by hydrodynamic size, large species first.
Another series deals with T1, BusR (Streptococcus agalactiae, UniProt K0JNC6).
T1 construct: gene BM110_ORF1201; full-length BusR (ITC)
The experiment in a line: ITC; […] Å co-crystal structure of the RCK_C domain; cryo-EM of the BusR:c-di-AMP:DNA complex. The class given is binding. In general terms: Isothermal titration calorimetry measures the heat released or taken up as one component is titrated into another.

Series [5] deals with His6-RCK_C domain of S. agalactiae BusR (Leu135 to end) (Streptococcus agalactiae). The experiment in a line: SAXS; isolated RCK_C domain in the absence of c-di-AMP; batch mode or SEC-SAXS, P12 beamline, PETRA III.
The target is the same in series [6]. The experiment in a line: crystal structure; apo His6-RCK_C, 6 mg/mL, 0.1 M Bis-Tris pH 6.5, 18% PEG MME 5000, 20°C; 1 Å; dimer by a symmetry related copy.
The target of series [7] is selenomethionine substituted full-length BusR from Streptococcus agalactiae (Streptococcus agalactiae). The series can be described thus: crystal structure; selenomethionine full-length BusR, apo, 7 mg/ml, 150 mM magnesium-acetate, 6% D+trehalose, 20°C; SAD, 2.8 Å.
Series [8] concerns the target T2, BusR wt (Streptococcus agalactiae DSM 16828, UniProt K0JNC6 1-213).
T2 sequence: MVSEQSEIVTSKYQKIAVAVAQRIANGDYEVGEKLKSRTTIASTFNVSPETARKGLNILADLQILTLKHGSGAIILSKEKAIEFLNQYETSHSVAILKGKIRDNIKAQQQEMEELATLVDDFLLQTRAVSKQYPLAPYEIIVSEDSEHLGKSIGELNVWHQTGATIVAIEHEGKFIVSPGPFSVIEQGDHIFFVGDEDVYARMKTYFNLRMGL
The experiment in a line: EMSA; 10 uM c-di-AMP, 100 nM BusR; EMSA: 100 mM KPi pH 6.5, 20 mM KCl, 30 min 20 C, 20 nM DNA, gel at 8 C; SPR: 100 mM NaPi pH 6.5, 20 mM KCl, 200 mM NaCl, 3 mM EDTA, 0.05% P20; BusR concentrations as tetramer. As to conditions: protein: recombinant; tags: His6-MBP removed with PreScission protease; chain copies: 4; label: 5'-6-FAM on strand 1; blunt. In general terms: In EMSA bound probe runs differently from free probe, usually more slowly.

For series [9], the target named is T2, BusR wt. The series can be described thus: cryo-EM; c-di-AMP; 7.1 A; EMSA: 100 mM KPi pH 6.5, 20 mM KCl, 30 min 20 C, 20 nM DNA, gel at 8 C; SPR: 100 mM NaPi pH 6.5, 20 mM KCl, 200 mM NaCl, 3 mM EDTA, 0.05% P20; BusR concentrations as tetramer. The note with it: protein: recombinant; tags: His6-MBP removed with PreScission protease; chain copies: 4; blunt.
Series [10] deals with T3, BusR W159A (Streptococcus agalactiae DSM 16828, UniProt K0JNC6 1-213, W159A). The series can be described thus: SPR; no c-di-AMP; EMSA: 100 mM KPi pH 6.5, 20 mM KCl, 30 min 20 C, 20 nM DNA, gel at 8 C; SPR: 100 mM NaPi pH 6.5, 20 mM KCl, 200 mM NaCl, 3 mM EDTA, 0.05% P20; BusR concentrations as tetramer. As to conditions: protein: recombinant; tags: His6-MBP removed with PreScission protease; chain copies: 4; blunt.

In series [11] the target is T3, BusR W159A. The series can be described thus: SPR; 10 uM c-di-AMP; EMSA: 100 mM KPi pH 6.5, 20 mM KCl, 30 min 20 C, 20 nM DNA, gel at 8 C; SPR: 100 mM NaPi pH 6.5, 20 mM KCl, 200 mM NaCl, 3 mM EDTA, 0.05% P20; BusR concentrations as tetramer. The note with it: protein: recombinant; tags: His6-MBP removed with PreScission protease; chain copies: 4; blunt.
Series [12] addresses T2, BusR wt. The series is described as above. The note with it: protein: recombinant; tags: His6-MBP removed with PreScission protease; chain copies: 4; blunt.

The stoichiometry N is the number of molecules, sites or subunits per partner or assembly. In series [1], “RCK_C domain of S. agalactiae BusR (Leu135 to end), no His6-tag (domain or fragment)” had a stoichiometry N of 2. Take “BusR from Streptococcus agalactiae (full length) (natural protein)”: the stoichiometry N in series [2], in [3] and in series [4] was 4 in each case. The term Kd denotes the equilibrium constant for the complex coming apart. `Nc1ncnc2c1ncn2[C@@H]1O[C@@H]2COP(=O)(O)O[C@H]3[C@@H](O)[C@H](n4cnc5c(N)ncnc54)O[C@@H]3COP(=O)(O)O[C@H]2[C@H]1O` [c-di-AMP]: the Kd on BusR was 112 ± 7 nM. With “His6-RCK_C domain of S. agalactiae BusR (Leu135 to end) (domain or fragment)”, the stoichiometry N in series [5] and in [6] was 2 each time. As for “selenomethionine substituted full-length BusR from Streptococcus agalactiae (natural protein)”, the stoichiometry N in [7] was 4.

B1: pAB1 0BS (dsDNA)
DNA 1: ATAAAGTATGGTTAAAGTATCGTAAAAGGGTACATACTTTTTTACT
DNA 2: AGTAAAAAAGTATGTACCCTTTTACGATACTTTAACCATACTTTAT
With B1, in the series with BusR wt [8], the binding result is “no binding”.

B2: pAB1_EM (dsDNA)
DNA 1: CGGTAAAGTGACGTTAAAGTATCGTAAAAGGGTAGTCACTTTTCGG
DNA 2: CCGAAAAGTGACTACCCTTTTACGATACTTTAACGTCACTTTACCG
As to B2, the binding result with BusR wt [9] is reported as “binds”.

B3: pAB1 -10bp (dsDNA)
DNA 1: ATAAAGTGACGTTAAAAGGGTAGTCACTTTTTTACT
DNA 2: AGTAAAAAAGTGACTACCCTTTTAACGTCACTTTAT
Regarding B3, in the series with BusR wt [8], the binding result is recorded as “no binding”.

B4: pAB1 (SPR) (dsDNA)
DNA 1: ATAAAGTGACGTTAAAGTATCGTAAAAGGGTAGTCACTTTTTTACT
DNA 2: AGTAAAAAAGTGACTACCCTTTTACGATACTTTAACGTCACTTTAT
For B4, the dissociation constant Kd with BusR W159A [10] is 11 ± 2 nM; in the series with BusR W159A [11], 34 ± 8 nM; with BusR wt [12], 5.1 ± 0.4 nM.

B5: pAB1 1BS-A (dsDNA)
DNA 1: B1 DNA 1 with C33G, A34T, T35C
DNA 2: B1 DNA 2 with A12G, T13A, G14C
Consider B5, for which the binding result with BusR wt [8] is “no binding”.

B6: pAB1 1BS-B (dsDNA)
DNA 1: B1 DNA 1 with A8G, T9A, G10C
DNA 2: B1 DNA 2 with C37G, A38T, T39C
With B6, in the series with BusR wt [8], the binding result is “no binding”.

B7: pAB1 +5bp (dsDNA)
DNA 1: ATAAAGTGACGTTAAAGTATCGTCGATTAAAAGGGTAGTCACTTTTTTACT
DNA 2: AGTAAAAAAGTGACTACCCTTTTAATCGACGATACTTTAACGTCACTTTAT
In the case of B7, in the series with BusR wt [8], the binding result was “no binding”.
